Results taken from patent US20190177416A1 (NANOMAB TECHNOLOGY, published 2019).

Target: T1, human PD-L1 protein (coated antigen) (human, UniProt Q9NZQ7 19-238, limits assumed)
T1 construct: Construct not described; also called PD-L1 antigen; antigenic protein PD-L1
Experiment: PE-ELISA, crude extract on coated PD-L1
Description: (1) From the cell culture dishes containing phage after 3-4 rounds of screening in Example 2, 1000 individual colonies were selected and inoculated into TB medium containing 100 μg/ml of ampicillin (1 liter of TB medium contains 2.3 g of potassium dihydrogen phosphate, 12.52 g of dipotassium hydrogen phosphate, 12 g of peptone, 24 g of yeast extract, 4 ml of glycerol), after growth to log phase, add a final concentration of […] of IPTG, culture at 28° C. overnight. (2) The crude antibody was obtained by the infiltration method, and the antibody was transferred to an antigen-coated ELISA plate and placed at room temperature for 1 hour. (3) Unbound antibody was washed away with PBST, and a mouse anti-HA tag antibody (anti-mouse anti-HA antibody, purchased from Beijing Kangwei Century Biotechnology Co., Ltd.) was added and placed at room temperature for 1 hour. (4) Unbound antibody was washed away with PBST, and anti-mouse alkaline phosphatase conjugate (goat anti-mouse alkaline phosphatase-labeled antibody, purchased from Amytech Co., Ltd.) was added and placed at room temperature for 1 hour. (5) Wash the unbound antibody with PBST, add alkaline phosphatase coloring solution, and read the absorbance at 405 nm on an ELISA apparatus. (6) When the OD value of the sample well is more than 3 times the OD value of the control well (Ratio+/−>3), it is judged as a positive clone hole. (7) The bacteria of the positive clone well were shaken in a LB liquid containing 100 μg per ml to extract a plasmid and perform sequencing.

T1 sequence (Q9NZQ7 19-238 limits assumed): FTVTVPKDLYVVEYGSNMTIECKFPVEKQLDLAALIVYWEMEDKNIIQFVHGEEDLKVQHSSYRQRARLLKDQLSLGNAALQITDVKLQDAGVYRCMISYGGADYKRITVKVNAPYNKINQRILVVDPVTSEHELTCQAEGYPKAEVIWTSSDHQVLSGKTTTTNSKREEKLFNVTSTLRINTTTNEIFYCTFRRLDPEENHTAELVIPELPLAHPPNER

OD ratio (experimental group (A405 nm)/control group (A405 nm)) | Binder
> 20 | SEQ ID NO 18 (VHH, pMECS-expressed; also called VHH numbered 18) VHH: QVQLQESGGGSVQAGGSLRLSCAASGYTYSSDGMGWFRQTPGKEREGVAAISPTGRRTEYADSVKGRFTISRDNNKNMLSLQMNSLKPEDTGMYYCAREGSWSFSLANSAVRSWGQGTQVTVSS
> 20 | SEQ ID NO 20 (VHH, pMECS-expressed; also called VHH numbered 20) VHH: QVQLQESGGGLVQPGGSLRLSCAASGFTGSIYAMSWVRQAPGKGLEWVSTISSSGGRRFYADSVKGRFTISRDNAKNTLYLQLNSLKTEDTAMYYCARCSDIYCDNGASYRGQGTQVTVSS
> 20 | SEQ ID NO 61 (VHH, pMECS-expressed; also called VHH numbered 61) VHH: QVQLQESGGGLVQPGGSLRLSCAASGFDFSSRAMSWVRQAPGKGLEWVSTINSGGGSRYYADSVKGRFTTSRDNAKNTLALQLNSLKTEDTAMYYCARCSDIYCDNGAWYRGQGTQVTVSS
> 20 | SEQ ID NO 74 (VHH, pMECS-expressed; also called VHH numbered 74) VHH: QVQLQESGGGSVQAGGSLRLSCAASGFTGSIYAMSWVRQAPGKGLEWVSTISSSGGRRFYADSVKGRFTISRDNAKNTLYLQLNSLKTEDTAMYYCARCSDIYCDNGASYRGQGTQVTVSS
> 20 | SEQ ID NO 58 (VHH, pMECS-expressed; also called VHH numbered 58) VHH: QVQLQESGGGLVQPGGSLRLSCALSGFTSTIYAMSWVRQAPGKGLEWVSTINSDGGYRYYADSVKGRFTISRDNAKNTLYLQLNSPKTEDTAMYYCARCSDIYCYNGPSYRGQGTQVTVSS
> 20 | SEQ ID NO 45 (VHH, pMECS-expressed; also called VHH numbered 45) VHH: QVQLQESGGGLVQPGGSLRLSCAASGFTFSIKAMSWVRQAPGKGLEWVSTIDSGGGRRYYADSVKGRFTISRDNAKNTLYLQLSSLKTEDTAMYFCARCSDIYCYNGASYRGQGTQVTVSS
> 20 | SEQ ID NO 70 (VHH, pMECS-expressed; also called VHH numbered 70) VHH: QVQLQESGGGLVQPGGSLRLSCAASGFTFSIRAMSWVRQAPGKGLEWVSTINSGGDSRYYADSVKGRFTISRDNAKNTMYLQLNSLKTEDTAMYYCVRCSDIYCYNGASYRGQGTQVTVSS
> 20 | SEQ ID NO 34 (VHH, pMECS-expressed; also called VHH numbered 34) VHH: QVQLQESGGGSVQAGGSLRLSCAASGYTRSLYCMGWFRQAPGREREGVAHVYTGDGSPYYADSVKGRFTISQDNGESTLYLQMNNLKPEDTAMYYCAAGTSALSRPYGPISYGYWYWGQGTQVTVSS
> 20 | SEQ ID NO 71 (VHH, pMECS-expressed; also called VHH numbered 71) VHH: QVQLQESGGGLVQPGGSLRLSCAASGFTFSSYDMSWVRQAPGKGIEWVSVINSGGSNTDYADSVKGRFTISRDNAKNTLYLQMNSLKTEDTAVYYCATAWMGYSDYLDGIARGQGTQVTVSS
> 20 | SEQ ID NO 50 (VHH, pMECS-expressed; also called VHH numbered 50) VHH: QVQLQESGGGLVQPGGSLRLSCIASGFTFSIMAMSWVRQAPGKGLEWVSTINSDGGKTYYADSVKGRFTISRDNAKNTLYLQLNSLRTEDMAMYYCRRCADIYCSGSGGWTGQGTQVTVSS
> 20 | SEQ ID NO 72 (VHH, pMECS-expressed; also called VHH numbered 72) VHH: QVQLQESGGGLVQPGGSLRLSCEASGLPFSIIAMSWVRQAPGKGLEWVSTINSDGGTTHYADSVKGRFTISRDNAKNTLYLQLNSLRTEDTAMYYCRRCTDIYCSGSGGWTGQGTQVTVSS
> 20 | SEQ ID NO 73 (VHH, pMECS-expressed; also called VHH numbered 73) VHH: QVQLQESGGGLVQPGGSLRLSCEASGLPFSIIAMSWVRQAPGKGLEWVSTINSDGGTTHYADSVKGRFTISRDNAKNTLYLQLNSLRTEDTAMYYCRRCTDIYCSGFGGWTGQGTQVTVSS
> 20 | SEQ ID NO 79 (VHH, pMECS-expressed; also called VHH numbered 79) VHH: QVQLQESGGGLVQPGGSLRLSCAASGLPFSIIAMSWVRQAPGKGIEWVSTINSGGGTTHYADSVKGRFTISRDNAKNTLYLQLNSLRTEDTAVYYCRRCADIYCSGSGGWTGLGTQVTVSS
> 20 | SEQ ID NO 65 (VHH, pMECS-expressed; also called VHH numbered 65) VHH: QVQLQESGGGLVQPGGSLRLSCAASGFTFSILAMSWVRQAPGKGLEWISTINNSGGTTFYADSVKGRFTISRDNAKNTLYLQLNSLRTEDTAMYYCRRCTDIYCSLSGGWTGQGTQVTVSS
> 20 | SEQ ID NO 76 (VHH, pMECS-expressed; also called VHH numbered 76) VHH: QVQLQESGGGSVQTGGSLRLSCAASTSIYSNNYMAWFRQVPGKGREGVAAVYIDDGRTYYADSVKGRFTISLDSAKNTVYLQMNSLKPEDTAMYYCAAAPGPLSRHYWYTSANYDYWGPGTQVTVSS
> 20 | SEQ ID NO 80 (VHH, pMECS-expressed; also called VHH numbered 80) VHH: QVQLQESGGGSVQTGGSLRLSCVASTSIYSNNYMAWFSQAPGKGREGVAAVYIDDGRPYYADSVKGRFTISLDSAKNTVYLQMNSLKPEDTAMYYCAAAPGPLSRSYWYTSANYDYWGQGTQVTVSS
> 20 | SEQ ID NO 81 (VHH, pMECS-expressed; also called VHH numbered 81) VHH: QVQLQESGGGSVQTGGSLRLSCAASTSIYSNNYMAWFSQAPGKGREGVAAVYIDDGRTYYADSVKGRFTISLDSAKNTVYLQMNSLKPEDTAMYYCAAAPGPLSRNYWYTSANYDYWGQGTQVTVSS
> 20 | SEQ ID NO 78 (VHH, pMECS-expressed; also called VHH numbered 78) VHH: QVQLQESGGGSVQTGGSLRLSCAASTSLYSYNYMAWFSQAPGKGREGVAAVYVGDGRPYYADSVKGRFTISLDSAKNTVYLQMNSLKPEDTAMYYCAAAPGPLSHNYWYTSANYDYWGQGTQVTVSS
> 20 | SEQ ID NO 83 (VHH, pMECS-expressed; also called VHH numbered 83) VHH: QVQLQESGGGLVQTGGSLRLSCAASTSIYSNNYLAWFSQAPGKGREGVAAVYIGDGRPYYADSVKGRFPISLNSAQNKVYLQMNSLKPEDTAMYYCAAAPGPLSRNYWYTSANYDYWGQGTQVTVSS
> 20 | SEQ ID NO 77 (VHH, pMECS-expressed; also called VHH numbered 77) VHH: QVQLQESGGGSVQTGGSLRLSCTASTSIYSNNYMAWFSQAPGKGREGVAAVYIDDGRPYYADSVKGRFTISLDSAKNTVYLQMNSLKPEDTAMYYCAAAPGPLSRNYWYTSANYDYWGQGTQVTVSS
> 20 | SEQ ID NO 85 (VHH, pMECS-expressed; also called VHH numbered 85) VHH: QVQLQESGGGSVQTGGSLRLSCAASTSIYSNNYMAWFSQAPGKGREGVAAVYIADDRPYYADSVKGRFTISLDSAKNTVYLQMNSLKPEDTAMYYCAAAPGPLSRNYWYTSANYDYWGQGTQVTVSS
> 20 | SEQ ID NO 86 (VHH, pMECS-expressed; also called VHH numbered 86) VHH: QVQLQDSGGGSVQTGGSLRLSCAASTSIYSINYMAWFSQAPGKGREGVAAVYTGDGRPYYADSVKGRFTISLDSAKNTVYLQMNSLKPEDTAMYYCAAAPGPLSRNYWYTSANYDYWGQGTQVTVSS
> 20 | SEQ ID NO 82 (VHH, pMECS-expressed; also called VHH numbered 82) VHH: QVQLQESGGGSVQTGGSLRLSCTASTSIYSNNYMAWFSQAPGKGREGVAAVYIDDGRPYYADSVKGRFTISLDSAKNTVYLQMNSLKPEDTAMYYCAAAPGPLSRNYWYTSANYDYWGQGTQVTVSS
> 20 | SEQ ID NO 84 (VHH, pMECS-expressed; also called VHH numbered 84) VHH: QVQLQESGGGSVQTGGSLRLSCAASTSIDSNNYMAWFRQAPGKGREGVAAVYIDDGRPYYADSVKGRFTISLDSAKNTVYLQMNSLKPEDTAMYYCAAAPGPLSRHYWYTSANYDYWGPGTQVTVSS
